Five molecules from patent US20120095193A1 (published 2012) can be followed below.

Numbering of substitutions follows the chain as printed.

Assay [1] has as its target T1, human ADAMTS5 (human, UniProt Q9UNA0 262-622, limits assumed).
T1 construct: Octet and ELISA used 'recombinant human ADAMTS5'; also called recombinant human ADAMTS5; ADAMTS5 (R&D Systems 2198-AD)
T1 sequence: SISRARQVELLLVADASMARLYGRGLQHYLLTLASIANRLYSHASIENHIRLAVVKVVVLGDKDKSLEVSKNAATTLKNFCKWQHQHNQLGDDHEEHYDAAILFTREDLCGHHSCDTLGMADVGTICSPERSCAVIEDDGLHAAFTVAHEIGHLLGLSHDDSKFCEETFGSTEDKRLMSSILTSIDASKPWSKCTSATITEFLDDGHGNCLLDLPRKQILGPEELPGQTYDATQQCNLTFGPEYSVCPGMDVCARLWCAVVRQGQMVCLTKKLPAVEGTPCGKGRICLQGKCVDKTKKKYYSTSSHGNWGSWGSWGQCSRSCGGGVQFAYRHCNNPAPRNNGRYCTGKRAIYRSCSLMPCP
The assay can be described thus: Octet QK, purified mAb.

The target in assay [2] is T1, human ADAMTS5. The assay is described as follows: Biacore, mAb down, no avidity.
In assay [3] the target is T1, human ADAMTS5. The assay can be described thus: Octet QK, antigen down, incl avidity. Background: Biolayer interferometry detects binding as a change in optical thickness at a sensor tip.
Assay [4] has as its target T1, human ADAMTS5. The assay can be described thus: Biacore, purified mAb captured on anti-human IgG, ADAMTS5 (R&D 2198-AD) at 64 nM, 1:1 fit. The method, then: (§1) Anti-human IgG (Biacore™, BR-1008-39) was immobilized on a CM5 chip by primary amine coupling. This surface was then used to capture the humanized antibodies, ADAMTS5 (R&D Systems 2198-AD) was then passed over the captured antibody at a single concentration of 64 nM, regeneration was carried out using 100 mM phosphoric acid followed by 3M MgCl₂. The binding curves were double referenced with buffer injection (i.e. 0 nM) and the data was fitted to the T100 analysis software using the 1:1 model. The run was carried out at 25° C., using HBS-EP as the running buffer. All antibodies were captured from tissue culture supernatants unless specified.
(In general: SPR reads the build-up and loss of mass on a sensor chip optically.)

In assay [5] the target is T1, human ADAMTS5. The assay can be described thus: Biacore, mAb from culture supernatant captured on anti-human IgG, ADAMTS5 (R&D 2198-AD) at 64 nM, 1:1 fit. How it is done: as §1
Assay [6] concerns the target T1, human ADAMTS5. The assay is described as follows: cell-based or functional assay.
Assay [7] concerns the target T1, human ADAMTS5. The assay is described as follows: Octet QK, purified murine mAb.
The next assay concerns the target Human MMP3 (human, UniProt P08254 18-477, limits assumed). The assay can be described thus: celTRF and Octet QK cross-reactivity.
For another assay, the target named is Human MMP9 (human, UniProt P14780 20-707, limits assumed). The assay is described as follows: celTRF and Octet QK cross-reactivity.
A further assay concerns the target Human MMP13 (human, UniProt P45452 20-471, limits assumed). The assay is described as follows: celTRF and Octet QK cross-reactivity.
The next assay addresses T2, Human ADAMTS1 (human, UniProt Q9UHI8 253-967, limits assumed).
T2 sequence (looked up): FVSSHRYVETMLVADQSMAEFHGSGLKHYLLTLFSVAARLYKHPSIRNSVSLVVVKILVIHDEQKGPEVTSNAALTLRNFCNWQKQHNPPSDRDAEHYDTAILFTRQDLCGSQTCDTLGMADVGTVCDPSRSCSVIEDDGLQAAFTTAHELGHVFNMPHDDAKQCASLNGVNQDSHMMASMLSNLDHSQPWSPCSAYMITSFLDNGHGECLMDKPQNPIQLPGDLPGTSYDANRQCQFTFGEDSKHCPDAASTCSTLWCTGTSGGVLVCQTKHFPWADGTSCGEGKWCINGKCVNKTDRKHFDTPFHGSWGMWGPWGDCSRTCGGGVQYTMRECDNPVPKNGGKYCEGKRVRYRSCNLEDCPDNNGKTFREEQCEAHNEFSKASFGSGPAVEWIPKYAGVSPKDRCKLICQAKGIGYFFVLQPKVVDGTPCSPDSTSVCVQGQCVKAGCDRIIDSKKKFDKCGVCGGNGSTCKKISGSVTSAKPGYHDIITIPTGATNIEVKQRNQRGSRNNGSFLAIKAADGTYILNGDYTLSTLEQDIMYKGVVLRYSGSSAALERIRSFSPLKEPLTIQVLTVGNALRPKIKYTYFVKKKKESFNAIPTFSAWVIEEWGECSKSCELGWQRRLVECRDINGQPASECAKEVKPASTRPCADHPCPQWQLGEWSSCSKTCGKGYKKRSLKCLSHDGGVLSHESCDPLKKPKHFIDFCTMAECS
The assay is described as follows: celTRF and Octet QK cross-reactivity.

The target of another assay is T3, Human ADAMTS4 (human, UniProt O75173 213-685, limits assumed).
T3 construct: also called aggrecanase-1
T3 sequence: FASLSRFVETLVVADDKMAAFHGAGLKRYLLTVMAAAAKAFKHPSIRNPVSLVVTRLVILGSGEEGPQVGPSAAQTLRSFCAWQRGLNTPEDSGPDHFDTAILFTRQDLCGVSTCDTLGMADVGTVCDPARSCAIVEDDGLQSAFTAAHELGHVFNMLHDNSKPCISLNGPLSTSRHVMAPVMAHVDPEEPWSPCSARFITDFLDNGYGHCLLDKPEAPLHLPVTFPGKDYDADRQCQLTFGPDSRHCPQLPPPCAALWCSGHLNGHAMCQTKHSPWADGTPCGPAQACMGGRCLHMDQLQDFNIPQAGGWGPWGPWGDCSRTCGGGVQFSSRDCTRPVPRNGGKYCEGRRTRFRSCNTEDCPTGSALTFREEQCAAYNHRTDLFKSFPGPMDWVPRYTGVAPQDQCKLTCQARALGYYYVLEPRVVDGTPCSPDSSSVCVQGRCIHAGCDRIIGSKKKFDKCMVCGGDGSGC
The assay is described as follows: celTRF and Octet QK cross-reactivity.

The target of the next assay is T4, Human ADAMTS13 (human, UniProt Q76LX8 75-685, limits assumed).
T4 sequence (looked up): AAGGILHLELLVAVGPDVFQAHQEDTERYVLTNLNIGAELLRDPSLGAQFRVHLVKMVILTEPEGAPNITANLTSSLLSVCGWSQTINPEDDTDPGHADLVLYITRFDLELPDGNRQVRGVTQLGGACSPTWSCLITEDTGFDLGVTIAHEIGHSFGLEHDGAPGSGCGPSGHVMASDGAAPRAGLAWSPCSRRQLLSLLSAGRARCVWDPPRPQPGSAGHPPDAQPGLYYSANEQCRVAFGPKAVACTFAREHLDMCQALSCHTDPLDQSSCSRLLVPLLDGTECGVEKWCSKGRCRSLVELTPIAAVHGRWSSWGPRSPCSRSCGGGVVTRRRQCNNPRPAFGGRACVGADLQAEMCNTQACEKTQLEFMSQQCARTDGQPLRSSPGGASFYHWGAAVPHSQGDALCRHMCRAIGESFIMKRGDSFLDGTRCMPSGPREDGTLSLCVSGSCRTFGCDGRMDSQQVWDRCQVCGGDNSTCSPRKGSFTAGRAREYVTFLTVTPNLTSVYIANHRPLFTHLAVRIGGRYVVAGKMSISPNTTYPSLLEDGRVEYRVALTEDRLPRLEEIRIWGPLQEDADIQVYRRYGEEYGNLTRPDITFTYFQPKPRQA
The assay can be described thus: celTRF and Octet QK cross-reactivity.

A further assay has as its target T5, Human MMP1 (human, UniProt P03956 20-469, limits assumed).
T5 sequence (looked up): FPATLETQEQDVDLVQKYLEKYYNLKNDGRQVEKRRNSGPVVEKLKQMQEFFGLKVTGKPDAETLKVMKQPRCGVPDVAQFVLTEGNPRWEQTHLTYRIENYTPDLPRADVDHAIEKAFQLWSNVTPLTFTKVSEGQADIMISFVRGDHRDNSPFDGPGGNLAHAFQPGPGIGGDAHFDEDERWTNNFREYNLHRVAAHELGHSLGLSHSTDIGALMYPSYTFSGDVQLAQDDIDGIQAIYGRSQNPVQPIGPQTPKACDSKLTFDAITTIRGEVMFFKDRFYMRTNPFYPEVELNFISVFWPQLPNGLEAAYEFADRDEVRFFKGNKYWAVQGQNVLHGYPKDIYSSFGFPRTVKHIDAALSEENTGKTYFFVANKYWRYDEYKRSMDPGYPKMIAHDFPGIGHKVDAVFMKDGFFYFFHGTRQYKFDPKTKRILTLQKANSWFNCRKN
The assay is described as follows: celTRF and Octet QK cross-reactivity.

Chain of Human MMP3 (P08254 18-477 limits assumed): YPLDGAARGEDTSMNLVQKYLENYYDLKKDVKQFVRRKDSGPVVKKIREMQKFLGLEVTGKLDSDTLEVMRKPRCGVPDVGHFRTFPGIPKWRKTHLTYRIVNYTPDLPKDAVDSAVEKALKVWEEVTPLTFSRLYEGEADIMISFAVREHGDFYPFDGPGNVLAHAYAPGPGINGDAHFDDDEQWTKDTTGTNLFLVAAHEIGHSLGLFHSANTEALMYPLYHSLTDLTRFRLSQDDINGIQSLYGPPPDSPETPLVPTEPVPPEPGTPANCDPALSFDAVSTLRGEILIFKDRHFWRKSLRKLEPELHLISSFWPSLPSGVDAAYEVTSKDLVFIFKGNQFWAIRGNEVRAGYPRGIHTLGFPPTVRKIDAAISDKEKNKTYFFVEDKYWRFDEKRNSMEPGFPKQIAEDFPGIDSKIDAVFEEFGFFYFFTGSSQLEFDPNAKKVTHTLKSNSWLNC
Chain of Human MMP9 (P14780 20-707 limits assumed): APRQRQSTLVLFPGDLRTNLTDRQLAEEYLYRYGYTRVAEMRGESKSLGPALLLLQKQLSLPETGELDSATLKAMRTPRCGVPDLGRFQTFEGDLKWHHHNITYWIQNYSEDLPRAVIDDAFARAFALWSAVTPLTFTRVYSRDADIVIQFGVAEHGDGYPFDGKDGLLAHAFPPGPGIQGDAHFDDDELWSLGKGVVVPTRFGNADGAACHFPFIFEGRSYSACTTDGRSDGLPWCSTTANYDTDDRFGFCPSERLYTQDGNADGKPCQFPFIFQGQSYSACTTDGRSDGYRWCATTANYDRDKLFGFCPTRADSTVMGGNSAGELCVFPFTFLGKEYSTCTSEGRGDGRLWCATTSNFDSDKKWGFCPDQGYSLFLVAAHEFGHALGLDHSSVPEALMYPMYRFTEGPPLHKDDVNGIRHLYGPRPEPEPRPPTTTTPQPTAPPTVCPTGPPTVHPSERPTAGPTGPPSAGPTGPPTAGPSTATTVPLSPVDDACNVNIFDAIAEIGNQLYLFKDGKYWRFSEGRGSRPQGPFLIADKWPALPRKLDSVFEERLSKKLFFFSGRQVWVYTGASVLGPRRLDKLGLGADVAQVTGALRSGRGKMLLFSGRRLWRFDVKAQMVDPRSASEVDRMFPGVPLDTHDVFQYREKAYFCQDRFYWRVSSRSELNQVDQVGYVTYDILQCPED

B1: BPC1623 (antibody, human IgG1, kappa, V domains shown)
VH: EVKLEESGGGLVQPGGSMKLSCTASGFTFSDAWMDWVRQSPEKGLEWVAEIRHKANDHAIFYDESVKGRFTISRDDSKNIVYLQMNSLRPEDTGIYYCTSPFAYWGQGTLVTVSS
VL: DIVMTQSQKFMSVTVGDRVSITCKASQSVGTTIVWYQQKPGQSPKLLIYSASNRHTGVPDRFTGSGSGTDFILTINNVQSEDLADYFCQQYTSYPFTFGSGTKLEIKR
notes: Chimeric: murine variable domains on human gamma 1 and kappa constant regions; also called 12F4 Chimera; Chimeric 12F4.1H7
For the molecule B1, the Kd with human ADAMTS5 [1] stood at 0.0799 nM; in the assay with human ADAMTS5 [2] it was 0.051 nM; in the assay with human ADAMTS5 [3], 0.0431 nM; with human ADAMTS5 [4], 0.0727 nM; with human ADAMTS5 [5] it was 0.0774 nM. Moreover, the values for the koff with human ADAMTS5 [4] and with human ADAMTS5 [5] were 4.7e-05 s⁻¹ and 4.82e-05 s⁻¹, respectively. For the same molecule, the kon (in general, the second-order rate constant of association) is 646000 M⁻¹ s⁻¹ in the assay with human ADAMTS5 [4] and 623000 M⁻¹ s⁻¹ with human ADAMTS5 [5].

B2: BPC1622 (antibody, human IgG1, kappa, V domains shown)
VH: EVKLEESGGGLVQPGGSMKLSCAASGFTSSDAWMDWVRQSPEKGLEWVAEIRNKANNHARHYAESVKGRFTISRDDSKSSVYLQMNSLRAEDSGIYYCTRTYYYGSSYGYCDVWGTGTLVTVSS
VL: DIQMTQSPASLSASVGETVTITCRTSENIYSYLAWYQQKQGKSPQLLVYNAKTLAEGVPSRFSGSGSGTQFSLKINSLQPEDFGSYSCQHHYGTPWTFGGGTKLEIKR
notes: Chimeric: murine variable domains on human gamma 1 and kappa constant regions; also called 7B4 Chimera; Chimeric 7B4.1E11
As for B2, the Kd was found to be 0.345 nM with human ADAMTS5 [1]; 0.473 nM with human ADAMTS5 [2]; 0.26 nM with human ADAMTS5 [3]; 1.21 nM with human ADAMTS5 [4]; 1.12 nM with human ADAMTS5 [5]. Also, the koff (commonly the rate constant with which the complex falls apart) amounted to 0.00106 s⁻¹ with human ADAMTS5 [4] and 0.0013 s⁻¹ with human ADAMTS5 [5]. The results for the kon with human ADAMTS5 [4] and with human ADAMTS5 [5] were 872000 M⁻¹ s⁻¹ and 1.16e+06 M⁻¹ s⁻¹, respectively.

B3: 2D3.1D4 (antibody, V domains shown)
VH: EVKLEESGGGLVQPGGSMKLSCAASGITFSDAWMDWVRQSPEKGLEWVADIRNTANNHATFYAESVKGRFTISRDDSKSTVYLQMNTLRPEDTGIYYCTSPFAYWGQGTLVTVSA
VL: DIVMTQSQKFMSTTVGDRVSITCKASQNVGTAVVWFQQKPGQSPKLLIYSASNRYTRVPDRFTGSGSGTDFTLTISNVQSEDLADYFCQQYVNYPFTFGSGTKLEIKR
notes: Murine monoclonal antibody from a hybridoma
Consider B3, for which, in the assay with human ADAMTS5 [6], the “Aggrecan Substrate Cleavage Neutralization IC50” value came to 0.031 nM. This molecule also had a Kd with human ADAMTS5 [7] of 0.0862 nM. Further, the binding result with Human MMP3, in the assay with Human MMP9, with Human MMP13, with Human ADAMTS1, in the assay with Human ADAMTS4 and in the assay with Human ADAMTS13 was “no binding” in each case. Besides, the binding result with Human MMP1 is recorded as “no binding”.

B4: 3A12.1D7 (antibody, V domains shown)
VH: B1 VH with L4F, T23A, T28I, H58Y, N79S, S87N, S115A
VL: B1 VL with N76S, T92S
notes: as for B3
Consider B4, for which the “Aggrecan Substrate Cleavage Neutralization IC50” value with human ADAMTS5 [6] stood at 0.769 nM. In the assay with human ADAMTS5 [7], the Kd was 0.0824 nM. In addition, the binding result with Human MMP3, with Human MMP9, in the assay with Human MMP13, with Human ADAMTS1, with Human ADAMTS4 and with Human ADAMTS13 was “no binding” throughout. In the assay with Human MMP1, the binding result is on record as “no binding”.

B5: 5F10.1H6 (antibody, V domains shown)
VH: B1 VH with T23A, N79S, S115A
VL: B1 VL with K9R, N53T, H55Y, S65G, T92S
notes: as for B3
B5: the “Aggrecan Substrate Cleavage Neutralization IC50” value with human ADAMTS5 [6] came out at 0.05 nM. In the assay with human ADAMTS5 [7], the Kd came to 0.126 nM. Besides, the binding result with Human MMP3, with Human MMP9, with Human MMP13, with Human ADAMTS1, with Human ADAMTS4 and with Human ADAMTS13 was “no binding” in each case. The binding result with Human MMP1 is reported as “no binding”.
